Measurements published in paper PMC9547791 (Acta Neuropathologica, 2022).

Target: T1, STI1 TPR2A domain (residues 217-352) (mouse, UniProt Q60864 217-352)
T1 construct: STI1, mouse, TPR2A domain, residues 217-352; The tag is TEV-cleavable
Conditions: both partners purified

T1 sequence (Q60864 217-352): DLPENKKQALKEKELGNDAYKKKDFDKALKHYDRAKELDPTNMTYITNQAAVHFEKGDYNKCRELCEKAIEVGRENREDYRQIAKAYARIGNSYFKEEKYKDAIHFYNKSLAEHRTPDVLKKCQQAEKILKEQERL

B1: Hsp90 pentapeptide (MEEVD), C-terminus of Hsp90 (peptide)
peptide: MEEVD
notes: pentapeptide motif of the C-terminus of Hsp90; also called Hsp90 peptide
  binding result: binds
